Data set [1] concerns the molecule itself. In words: SDS-PAGE under non-reducing and reducing conditions; purified GOLPH2-Δ(1–55) and cysteine mutants boiled with 0 to 100 mM 2-mercaptoethanol, 10% SDS-PAGE; shows disulfide-linked oligomers.
Data set [2] concerns the molecule itself. In words: native gel or EMSA; native-PAGE of purified GOLPH2-Δ(1–55) and cysteine mutants, loaded directly or boiled with 2% SDS and 140 mM 2-mercaptoethanol; BSA monomer, dimer and tetramer as markers. A general note: In EMSA bound probe runs differently from free probe, usually more slowly.
Data set [3] deals with the molecule itself. In words: SDS-PAGE under non-reducing conditions with immunoblot; lysates of HeLa cells 36 h after transfection with pCR3.1-GOLPH2-FLAG or mutants; immunoblot with FLAG antibody.

Numbering of substitutions follows the chain as printed. In names and notes the source's numbering stands.

B1: GOLPH2-Δ(1–55) (domain or fragment, human, UniProt Q8NBJ4 56-401, looked up)
chain: AAAERGAVELKKNEFQGELEKQREQLDKIQSSHNFQLESVNKLYQDEKAVLVNNITTGERLIRVLQDQLKTLQRNYGRLQQDVLQFQKNQTNLERKFSYDLSQCINQMKEVKEQCEERIEEVTKKGNEAVASRDLSENNDQRQQLQALSEPQPRLQAAGLPHTEVPQGKGNVLGNSKSQTPAPSSEVVLDSKRQVEKEETNEIQVVNEEPQRDRLPQEPGREQVVEDRPVGGRGFGGAGELGQTPQVQAALSVSQENPEMEGPERDQLVIPDGQEEEQEAAGEGRNQQKLRGEDDYNMDENEAESETDKQAALAGNDRNIDVFNVEDQKRDTINLLDQREKRNHTL
notes: Golgi phosphoprotein 2 (GOLPH2, GP73, GOLM1), human, residues 1-55 deleted; C-terminal luminal region, amino acids 56-401; also called purified wild-type GOLPH2; GOLPH2-Δ(1–55) fusion protein; source: E. coli BL21 (DE3), pET22b(+), purified (Ni-NTA)
B1: in data set [1], the binding result is reported as “binds”.

B2: GOLPH2-Δ(1–55) C170A (domain or fragment, human, UniProt Q8NBJ4 56-401, looked up)
chain: B1 chain with C115A
notes: GOLPH2 (GP73, GOLM1), human, residues 1-55 deleted (amino acids 56-401), C170A; also called single mutant C170A; source: E. coli BL21 (DE3), pET22b(+), purified (Ni-NTA)
Take B2: the binding result in data set [1] is “binds”.

B3: GOLPH2-Δ(1–55) C159A-C170A (domain or fragment, human, UniProt Q8NBJ4 56-401, looked up)
chain: B1 chain with C104A, C115A
notes: GOLPH2 (GP73, GOLM1), human, residues 1-55 deleted (amino acids 56-401), C159A and C170A; Monomer on non-reducing SDS-PAGE, same migration as the wild type on native-PAGE; also called double mutant C159A–C170A; source: E. coli BL21 (DE3), pET22b(+), purified (Ni-NTA)
For B3, in data set [2], the binding result is “binds”.

B4: GOLPH2-Δ(1–55) C159A (domain or fragment, human, UniProt Q8NBJ4 56-401, looked up)
chain: B1 chain with C104A
notes: GOLPH2 (GP73, GOLM1), human, residues 1-55 deleted (amino acids 56-401), C159A; also called single mutant C159A; source: E. coli BL21 (DE3), pET22b(+), purified (Ni-NTA)
For the protein B4, the binding result in data set [2] is on record as “binds”.

B5: GOLPH2-FLAG (wild-type, full length) (natural protein, human, UniProt Q8NBJ4 1-401, looked up)
chain: MMGLGNGRRSMKSPPLVLAALVACIIVLGFNYWIASSRSVDLQTRIMELEGRVRRAAAERGAVELKKNEFQGELEKQREQLDKIQSSHNFQLESVNKLYQDEKAVLVNNITTGERLIRVLQDQLKTLQRNYGRLQQDVLQFQKNQTNLERKFSYDLSQCINQMKEVKEQCEERIEEVTKKGNEAVASRDLSENNDQRQQLQALSEPQPRLQAAGLPHTEVPQGKGNVLGNSKSQTPAPSSEVVLDSKRQVEKEETNEIQVVNEEPQRDRLPQEPGREQVVEDRPVGGRGFGGAGELGQTPQVQAALSVSQENPEMEGPERDQLVIPDGQEEEQEAAGEGRNQQKLRGEDDYNMDENEAESETDKQAALAGNDRNIDVFNVEDQKRDTINLLDQREKRNHTL
notes: Golgi phosphoprotein 2 (GOLPH2, GP73, GOLM1), human, full-length cDNA from Huh7 cells; also called pCR3.1-GOLPH2-FLAG; wild-type GOLPH2; source: HeLa, transfected, in lysate; not shown: FLAG, C-terminal, kept
Turning to B5, the “stoichiometry N” value in data set [3] stood at 2.

As usually defined, the stoichiometry N is the number of molecules, sites or subunits per partner or assembly.

Source of the values: article PMC3226628, “The Golgi Localization of GOLPH2 (GP73/GOLM1) Is Determined by the Transmembrane and Cytoplamic Sequences” (PLoS ONE, 2011).
